36 sequences from the Immune Epitope Database (IEDB) can be followed below.

Broadly, the IC50 is the concentration needed to halve the response being measured.

Some targets named below: HLA-A*02:06; HLA-A*68:02; HLA-A*02:02; HLA-A*02:03; HLA-A*02:01.
What all share (experiment): IEDB peptide-MHC binding, purified MHC/competitive/radioactivity; ≥ and ≤ were set here for values at or beyond the usual limits of such assays
Setting [1] is: source organism: Hepacivirus hominis.
Where [2] appears, read: source organism: Vaccinia virus WR.
The mark [3] stands for this setting: source organism: Mammarenavirus whitewaterense.
[4] abbreviates: source organism: Influenza A virus.
Setting [5] is: source organism: Mammarenavirus choriomeningitidis.

Regarding YMLVLAEALI, the IC50 with HLA-A*02:06 (setting [1]) was 512 nM; with HLA-A*68:02 (setting [1]), 974 nM; with HLA-A*02:02 (setting [1]), 107 nM; with HLA-A*02:03 (setting [1]), 228 nM; in the test with HLA-A*02:01 (setting [1]), 152 nM.
FLTGTFVTA: the IC50 was determined as 2.1 nM with HLA-A*02:06 (setting [2]); 896 nM in the test with HLA-A*68:02 (setting [2]); 4.7 nM with HLA-A*02:02 (setting [2]); 0.71 nM with HLA-A*02:03 (setting [2]); 15 nM in the test with HLA-A*02:01 (setting [2]).
The corresponding values for MIYDLNAVTT are 429 nM, 114 nM, 897 nM, 477 nM and 278 nM.
On to YIWKSYVHI, for which the IC50 with HLA-A*02:06 (source organism: SARS-CoV1) is 8.9 nM; with HLA-A*68:02 (source organism: SARS-CoV1), 104 nM; in the test with HLA-A*02:02 (source organism: SARS-CoV1), 86 nM; with HLA-A*02:03 (source organism: SARS-CoV1), 13 nM; with HLA-A*02:01 (source organism: SARS-CoV1) it was 24 nM.
As to QLFKYVPSA, the IC50 is 349 nM in the test with HLA-A*02:06 (setting [2]); 1620 nM in the test with HLA-A*68:02 (setting [2]); 12 nM with HLA-A*02:02 (setting [2]); 7.8 nM with HLA-A*02:03 (setting [2]); 7 nM with HLA-A*02:01 (setting [2]).
For the sequence TLLCVLAALV, the IC50 with HLA-A*02:06 (source organism: SARS-CoV1) amounted to 65 nM; with HLA-A*68:02 (source organism: SARS-CoV1) it was 4390 nM; in the test with HLA-A*02:02 (source organism: SARS-CoV1), 4.6 nM; in the test with HLA-A*02:03 (source organism: SARS-CoV1) it was 77 nM; with HLA-A*02:01 (source organism: SARS-CoV1) it was 29 nM.
For the sequence LNASYITPYV, the IC50 in the test with HLA-A*02:06 (setting [3]) worked out at 38 nM; in the test with HLA-A*68:02 (setting [3]), 13 nM; with HLA-A*02:02 (setting [3]), 33 nM; with HLA-A*02:03 (setting [3]), 1070 nM; with HLA-A*02:01 (setting [3]), 87 nM.
On to QIFNIISYII, for which the IC50 was found to be 743 nM with HLA-A*02:06 (setting [2]); 332 nM with HLA-A*68:02 (setting [2]); 288 nM with HLA-A*02:02 (setting [2]); 206 nM in the test with HLA-A*02:03 (setting [2]); 355 nM with HLA-A*02:01 (setting [2]).
For FQVDCFLWH, the IC50 with HLA-A*02:06 (setting [4]) amounted to 93 nM; with HLA-A*68:02 (setting [4]), 3660 nM; with HLA-A*02:02 (setting [4]), 216 nM; with HLA-A*02:03 (setting [4]), 1260 nM; with HLA-A*02:01 (setting [4]), 336 nM.
LTTVFIKYV: the IC50 worked out at 130 nM with HLA-A*02:06 (setting [2]); 330 nM in the test with HLA-A*68:02 (setting [2]); 3640 nM with HLA-A*02:02 (setting [2]); 676 nM with HLA-A*02:03 (setting [2]); 1060 nM with HLA-A*02:01 (setting [2]).
On the same counts, the results for RIITILQDI are 2 nM, 1490 nM, 583 nM, 5.6 nM and 146 nM.
GTSAAAYFV: the IC50 with HLA-A*02:06 (source organism: SARS-CoV1) was determined as 91 nM; with HLA-A*68:02 (source organism: SARS-CoV1) it was 14 nM; with HLA-A*02:02 (source organism: SARS-CoV1) it was 35 nM; with HLA-A*02:03 (source organism: SARS-CoV1) it was 202 nM; with HLA-A*02:01 (source organism: SARS-CoV1), 176 nM.
For the sequence VLWAHGFEL, the IC50 came to 20 nM with HLA-A*02:06 (source organism: SARS-CoV1); 3890 nM with HLA-A*68:02 (source organism: SARS-CoV1); 2.4 nM with HLA-A*02:02 (source organism: SARS-CoV1); 34 nM in the test with HLA-A*02:03 (source organism: SARS-CoV1); 0.4 nM with HLA-A*02:01 (source organism: SARS-CoV1).
Regarding NLDDVYSYI, the IC50 is 92 nM in the test with HLA-A*02:06 (setting [2]); 1030 nM with HLA-A*68:02 (setting [2]); 0.72 nM in the test with HLA-A*02:02 (setting [2]); 96 nM in the test with HLA-A*02:03 (setting [2]); 3.8 nM with HLA-A*02:01 (setting [2]).
The corresponding values for PLISILMIFI are 2420 nM, 915 nM, 433 nM, 769 nM and 836 nM.
On the same counts, the results for RIVVALSSLV are 9.6 nM, 8.5 nM, 48 nM, 7.2 nM and 51 nM.
The corresponding values for TLNTLITLI are 941 nM, 472 nM, 0.99 nM, 0.6 nM and 51 nM.
Take NLETYTRPEI: the IC50 with HLA-A*02:06 (setting [2]) worked out at 636 nM; with HLA-A*68:02 (setting [2]), 2080 nM; with HLA-A*02:02 (setting [2]), 539 nM; with HLA-A*02:03 (setting [2]), 1500 nM; with HLA-A*02:01 (setting [2]), 1220 nM.
Turning to LIVILFIMFM, the IC50 with HLA-A*02:06 (setting [2]) was 120 nM; with HLA-A*68:02 (setting [2]), 60 nM; with HLA-A*02:02 (setting [2]), 85 nM; in the test with HLA-A*02:03 (setting [2]) it was 433 nM; with HLA-A*02:01 (setting [2]), 139 nM.
The corresponding values for PMSRLFMDEI are 4370 nM, 1360 nM, 1930 nM, 726 nM and 4020 nM.
Take YLMCLSPLMA: the IC50 was found to be 1.3 nM with HLA-A*02:06 (source organism: SARS-CoV1); 166 nM with HLA-A*68:02 (source organism: SARS-CoV1); 0.24 nM with HLA-A*02:02 (source organism: SARS-CoV1); 0.13 nM with HLA-A*02:03 (source organism: SARS-CoV1); 0.65 nM with HLA-A*02:01 (source organism: SARS-CoV1).
Regarding YIALCKVTV, the IC50 in the test with HLA-A*02:06 (setting [2]) was determined as 19 nM; with HLA-A*68:02 (setting [2]) it was 48 nM; with HLA-A*02:02 (setting [2]), 12 nM; with HLA-A*02:03 (setting [2]) it was 24 nM; with HLA-A*02:01 (setting [2]) it was 15 nM.
In the case of AVYNFATCGI, the IC50 is 25 nM in the test with HLA-A*02:06 (setting [5]); 13 nM with HLA-A*68:02 (setting [5]); 25 nM with HLA-A*02:02 (setting [5]); 7.3 nM with HLA-A*02:03 (setting [5]); 137 nM with HLA-A*02:01 (setting [5]).
For LMDCIIFES, the IC50 with HLA-A*02:06 (setting [5]) came to 300 nM; with HLA-A*68:02 (setting [5]), 425 nM; in the test with HLA-A*02:02 (setting [5]), 30 nM; in the test with HLA-A*02:03 (setting [5]) it was 825 nM; with HLA-A*02:01 (setting [5]) it was 99 nM.
Turning to YMVTDKTAYI, the IC50 with HLA-A*02:06 (setting [2]) was 6.1 nM; with HLA-A*68:02 (setting [2]), 1.5 nM; with HLA-A*02:02 (setting [2]) it was 0.23 nM; with HLA-A*02:03 (setting [2]) it was 0.28 nM; with HLA-A*02:01 (setting [2]), 4.8 nM.
On the same counts, the results for IINSVSIILA are 957 nM, 154 nM, 719 nM, 890 nM and 895 nM.
For the sequence FLIVAALVFL, the IC50 was 3.6 nM with HLA-A*02:06 (source organism: SARS-CoV1); 1090 nM in the test with HLA-A*68:02 (source organism: SARS-CoV1); 3 nM with HLA-A*02:02 (source organism: SARS-CoV1); 162 nM with HLA-A*02:03 (source organism: SARS-CoV1); 11 nM in the test with HLA-A*02:01 (source organism: SARS-CoV1).
FMRDEVSFSV: the IC50 with HLA-A*02:06 (setting [1]) was found to be 10 nM; with HLA-A*68:02 (setting [1]), 2950 nM; in the test with HLA-A*02:02 (setting [1]), 2.2 nM; with HLA-A*02:03 (setting [1]), 2.7 nM; with HLA-A*02:01 (setting [1]), 4 nM.
For YLMCLSPLM, the IC50 with HLA-A*02:06 (source organism: SARS-CoV1) is 1.1 nM; with HLA-A*68:02 (source organism: SARS-CoV1), 1240 nM; with HLA-A*02:02 (source organism: SARS-CoV1), 0.14 nM; with HLA-A*02:03 (source organism: SARS-CoV1) it was 0.3 nM; with HLA-A*02:01 (source organism: SARS-CoV1), 0.34 nM.
For IVVPVIDRL, the IC50 amounted to 31 nM with HLA-A*02:06 (setting [2]); 35 nM in the test with HLA-A*68:02 (setting [2]); 144 nM with HLA-A*02:02 (setting [2]); 226 nM in the test with HLA-A*02:03 (setting [2]); 241 nM in the test with HLA-A*02:01 (setting [2]).
The corresponding values for NTTTFITVLT are 600 nM, 34 nM, 1960 nM, 596 nM and 559 nM.
The corresponding values for FVTDYVHEGV are 11 nM, 1.6 nM, 24 nM, 1.7 nM and 48 nM.
MVTDKTAYI: the IC50 was 25 nM with HLA-A*02:06 (setting [2]); 3.2 nM with HLA-A*68:02 (setting [2]); 17 nM in the test with HLA-A*02:02 (setting [2]); 2 nM with HLA-A*02:03 (setting [2]); 227 nM with HLA-A*02:01 (setting [2]).
On the same counts, the results for FISIYSRPKI are 396 nM, 592 nM, 23 nM, 102 nM and 135 nM.
As for IVDTVSALV, the IC50 with HLA-A*02:06 (source organism: SARS-CoV1) was found to be 43 nM; in the test with HLA-A*68:02 (source organism: SARS-CoV1), 301 nM; in the test with HLA-A*02:02 (source organism: SARS-CoV1) it was 17 nM; with HLA-A*02:03 (source organism: SARS-CoV1), 528 nM; in the test with HLA-A*02:01 (source organism: SARS-CoV1), 58 nM.
On to YIPPCQCTV, for which the IC50 came out at 92 nM in the test with HLA-A*02:06 (setting [2]); 228 nM with HLA-A*68:02 (setting [2]); 196 nM in the test with HLA-A*02:02 (setting [2]); 445 nM in the test with HLA-A*02:03 (setting [2]); 107 nM with HLA-A*02:01 (setting [2]).
